Laboratory results taken from patent US20240158448A1, “MULTIVALENT NANO-'SELF' PEPTIDES AND USES THEREOF” (THE TRUSTEES OF THE UNIVERSITY OF PENNSYLVANIA, priority 2021, published 2024).
Entries after “also recorded” stand apart in the source; their conditions may differ. Non-standard residues stand in square brackets, D forms with d. Primed or numbered codes have the meaning given here. No end group written: not given here. PEG5′ = linker of 5 PEG units between residues

How the values were obtained:
SIRPα = biological target: T1, SIRPα (Homo sapiens, UniProt P78324); experiment: CD47-Fc Inhibition Assay on THP-1 macrophages; format: binding; details: 1 μM or 50 μM peptide, 2 μg/mL CD47-Fc, anti-Fc fluorescence
T1 construct: THP-1 monocytes were PMA differentiated in RPMI for 48 h; endogenous in cells; host or cells: PMA-differentiated THP-1 macrophages
Description: CD47-Fc Inhibition Assay. THP-1 monocytes were PMA differentiated in RPMI for 48 h. The macrophages were washed with RPMI media and then incubated with 1 μM or 50 μM of nano- Self peptides for 1 h at 37° C., 5% CO2, and 95% humidity. After washing, the macrophages were incubated with Human Trustain FcX Fc receptor blocking solution (Biolegend) for 10 min at RT and then incubated with 2 μg/mL CD47-Fc fusion protein (ACRO Biosystems) for 1 h at 37° C., 5% CO2, and 95% humidity. As a negative control, B6H12 was pre-mixed with CD47-Fc at 4° C. on a rotator for 1 h. The macrophages were then washed and incubated with 0.5 μg/mL goat anti-human IgG Fc DyLight 488 (Thermo Fischer) for 1 h at 37° C., 5% CO2, and 95% humidity. Finally, the macrophages were washed, fixed, Hoechst 33342 stained, and imaged as described above.
To determine whether the nS peptides bind to SIRPα, nS-FF and nS-F4 were used as soluble competitive inhibitors of saturable CD47-Fc fusion protein binding to macrophages (FIG. 20). Addition of multivalent nS peptides was followed by Fc-receptor blockade to minimize Fc-driven binding of construct. Afterwards, CD47-Fc was added and then finally anti-Fc fluorescence imaging was performed (FIG. 20, left).

[1] = Pre-clinical safety: intravenous nS-FF injections in mice; format: in vivo, mouse
Description: FIGS. 23A-23D illustrate that pre-clinical assessments indicate nS-FF is safe in vivo Phase 1 pre-clinical trial: Intravenous injections of nS-FF were done for four consecutive days followed by blood withdrawal 24 hours after last injection.
Phase 1 clinical trials for safety of anti-CD47 in patients have shown that infusion into the bloodstream decreases RBC numbers (i.e. hematocrit) and increases reticulocytes (i.e. new RBCs), and related blood safety concerns apply to a bivalent CD47-binding protein made with SIRPα domains fused to a macrophage-binding domain (Fc domain). […] This corresponds to about 8 μM in the blood, assuming rapid mixing and no dilution within the ˜1.5 mL blood volume of the mouse. Withdrawal of ˜140 μL from this blood volume was necessary to obtain a complete hematology profile, and such a volume is expected to cause slight decreases in hematocrit and platelets as shown (FIGS. 23A-23B). Consistent with this loss, more RBCs should be produced in each mouse to compensate for the RBC loss, and the ˜30% increase in reticulocytes after the first two blood draws over 11 days (FIG. 23C) is similar to the prior amount of blood removed (˜300 μl/1500 μl). The mice (˜14 weeks) also continued to gain weight at the same rates (˜5% over 11 days) regardless of peptide injections. These changes are thus expected but, importantly, unaffected by the nSFF peptide, which establishes some safety.

[2] = system: mouse J774A.1 macrophages; experiment: In vitro phagocytosis assay: opsonized human RBCs engulfed by mouse J774A.1 macrophages; format: cell-based; details: saturating / 50 μM peptide
Description: In vitro phagocytosis assay. […] For CD47 blocked RBCs, 5 μg/mL of mouse anti-human CD47 (B6H12; BD Biosciences) were added. Thereafter, RBCs were washed with PBS three times and stained with PKH26 dye (1:800 dilution in PBS; Sigma) for 1 hour at RT with shaking in the dark. RBCs were washed and resuspended in PBS. J774A.1 macrophages were plated for 24 hours in RPMI. For SIRPα blocked J774A.1 macrophages, the same peptide blocking procedure as described elsewhere herein was used with the addition of a positive control using 5 μg/mL rat anti-mouse SIRPα ([…]; BD Biosciences). […] CO2 and 95% humidity. Macrophages were then washed with RPMI three times. Adherent and uninternalized RBCs were lysed with water for 30 seconds followed by immediate replacement with RPMI media. In order to distinguish remaining adherent RBCs from internalized RBCs, opsonized RBCs were stained with AlexaFluor 647 donkey anti-rabbit (binds to rabbit polyclonal opsonin on RBC; Invitrogen) IgG (1:1000) while unopsonized, CD47 blocked RBCs were stained with AlexaFluor 647 donkey anti-mouse (binds to mouse monoclonal anti-CD47 on RBCs; Invitrogen) IgG (1:1000) for 30 minutes. After washing, macrophages were fixed with 4% formaldehyde for 15 minutes at RT, washed with PBS, stained with 1 μg/mL Hoechst 33342, and then washed with PBS again. Fluorescence imaging was performed as described elsewhere herein and quantification was done using ImageJ. At least 200 cells were analyzed and experiments were repeated at least three times.

[3] = system: A549 (SIRPα positive) cells; experiment: Confocal live staining with FAM-labeled peptides, A549 cells; format: binding, human; details: 100 uM and 1 μM FAM-labeled peptide
Description: SIRPα staining and confocal imaging. THP-1 monocytes were PMA-differentiated in RPMI 1640 for 24 hours. J774A.1, A549, and COS-1 cells were plated for 24 hours in media, respectively. Cells were washed with respective media prior to addition of fluorescent peptides. The peptides were left to incubate for 1 hour at 37 ° C., 5% CO2 and 95% humidity. For fixed cell staining, cells were incubated with 4% formaldehyde (Pierce) for 15 minutes prior to the addition of fluorescent peptides whereas for live cell staining, fixation was done after incubation with the FAM-labeled peptides. Nuclei were stained with 1 μg/mL Hoechst 33342 (Invitrogen). Cells were the washed PBS three times before analysis. Fluorescence imaging of fixed cells was performed using an Olympus IX71 with a digital EMCCD camera (Cascade 512B) and a 40×/0.6 NA objective. […] Quantification was done with ImageJ (NIH).
In order to visualize the uneven binding of the peptides to the surface of the macrophages, a live staining experiment of THP-1, J774A.1, and A549 cells, which all express SIRPα at different levels, was performed with FAM-labeled nS-wt and nS-X and analyzed by confocal microscopy (FIG. 11). […] Fluorescence of nS-X was consistently lower on THP-1 and J774A.1 macrophages relative to nS-wt. […]

| Substance | level of inhibition of CD47-Fc binding (SIRPα) | increase in reticulocytes ([1]; after the first two blood draws over 11 days, unaffected by peptide) | safety: mouse hematology and body weight ([1]; four daily tail-vein injections of 1 mg/kg, 1 mg/kg) | body weight gain ([1]; over 11 days, same rates regardless of peptide injections) | effect on phagocytosis of opsonized RBCs (words) [2] | binding to A549 cells [3] |
| --- | --- | --- | --- | --- | --- | --- |
| (VTELFREG-PEG5)2-K (VTELFREG[PEG5′]K[PEG5′]GERFLETV; not fully specified; also: bivalent lysine core) [nS-FF, bivalent nS-F linked through PEG5 linkers to a C-terminal Lys] | as inhibitory as anti-CD47 | ~30% | safe, with no anemia or weight loss; also recorded: no differences versus PBS vehicle control | ~5% | – | – |
| VTELTREG [nS-wt, 8-amino acid wild type nano-Self peptide from the CD47 loop, C-terminal amide] | – | – | – | – | matches anti-CD47 blockade effects | binding was observed at 100 uM on A549 cells all around the surface |
